In paper PMC4675670:

Test system: O=C(O)[C@@H]1CCCN1
Assay: enzyme kinetics, Km
Type: biochemical, Plasmodium falciparum
Details: proline-binding pocket

Substance	Km [µM]
cytoplasmic prolyl-tRNA synthetase (PfcPRS, PF3D7_1213800) (Plasmodium falciparum 3D7)	117.0
cytoplasmic prolyl-tRNA synthetase (PfcPRS, PF3D7_1213800) (Plasmodium falciparum 3D7; L482H)	747.7
